B1: Humanized Ab #H7-H4.00/L4.29 (antibody, human IgG1, kappa)
heavy: not shown
light: SYELTQPPSVSVSPGQTARITCSGGSGRYYYGWYQQKPGQAPVTVIYSSTHRPSGIPERFSGSNSGSTTTLTISGVQAEDEADYYCGTADSSSYVFGGGTKLTVLGTVAAPSVFIFPPSDEQLKSGTASVVCLLNNFYPREAKVQWKVDNALQSGNSQESVTEQDSKDSTYSLSSTLTLSKADYEKHKVYACEVTHQGLSSPVTKSFNRGEC
notes: also called humanized anti-PAD4 antibody derived from H7 (IgG1 kappa)
B2: humanized anti-PAD4 antibody derived from G8, VH H4.15 / VL L4.29 (antibody, human IgG1, kappa, V domains shown)
VH: EVQLLESGGGLVQPGGSLRLSCAASGFTFSTYAMGWVRQAPGKGLEFVSAIRNDGSWTGYGAAVKGRFTISRDNSKNTVYLQMNSLRAEDTAVYYCAKYTGSSGGSIGAWGQGTLVTVSS
VL: SYELTQPPSVSVSPGQTARITCSGGNRNYYYGWYQQKPGQAPVTVIYANDKRPSGIPERFSGSNSGSTTTLTISGVQAEDEADYYCGTADTGKYVFGGGTKLTVLG
notes: IgG1 kappa; also called G8 H4.15/L4.29
B3: humanized anti-PAD4 antibody derived from G8, VH H4.32 / VL L4.17 (antibody, IgG1, V domains shown)
VH: EVQLLESGGGLVQPGGSLRLSCAASGFTFSTYAMGWVRQAPGKGLEFVAAIRNDGSWTGYGAAVKGRVTISRDNSKNTVYLQMNSLRAEDTAVYYCAKYTGSSGGSIGAWGQGTLVTVSS
VL: SYELTQPPSVSVSPGQTARITCSGGNRNYYYGWYQQKPGQAPVTVIYANDKRPSGIPERFSGSTSGNTTTLTISGVQAEDEADYYCGTADTGKYVFGGGTKLTVLG
notes: IgG1 kappa; also called G8 H4.32/L4.17
B4: humanized anti-PAD4 antibody derived from G8, VH H4.32 / VL L4.00 (antibody, IgG1, V domains shown)
VH: EVQLLESGGGLVQPGGSLRLSCAASGFTFSTYAMGWVRQAPGKGLEFVAAIRNDGSWTGYGAAVKGRVTISRDNSKNTVYLQMNSLRAEDTAVYYCAKYTGSSGGSIGAWGQGTLVTVSS
VL: SYELTQPPSVSVSPGQTARITCSGGNRNYYYGWYQQKPGQAPVLVIYANDKRPSGIPERFSGSSSGTTVTLTISGVQAEDEADYYCGTADTGKYVFGGGTKLTVLG
notes: IgG1 kappa; also called G8 H4.32/L4.00
B5: humanized anti-PAD4 antibody derived from G8, VH H4.32 / VL L4.29 (antibody, IgG1, V domains shown)
VH: EVQLLESGGGLVQPGGSLRLSCAASGFTFSTYAMGWVRQAPGKGLEFVAAIRNDGSWTGYGAAVKGRVTISRDNSKNTVYLQMNSLRAEDTAVYYCAKYTGSSGGSIGAWGQGTLVTVSS
VL: SYELTQPPSVSVSPGQTARITCSGGNRNYYYGWYQQKPGQAPVTVIYANDKRPSGIPERFSGSNSGSTTTLTISGVQAEDEADYYCGTADTGKYVFGGGTKLTVLG
notes: IgG1 kappa; also called G8 H4.32/L4.29
B6: humanized anti-PAD4 antibody derived from G8, VH H4.32 / VL L4.06 (antibody, IgG1, V domains shown)
VH: EVQLLESGGGLVQPGGSLRLSCAASGFTFSTYAMGWVRQAPGKGLEFVAAIRNDGSWTGYGAAVKGRVTISRDNSKNTVYLQMNSLRAEDTAVYYCAKYTGSSGGSIGAWGQGTLVTVSS
VL: SYELTQPPSVSVSPGQTARITCSGGNRNYYYGWYQQKPGQAPVTVIYANDKRPSGIPERFSGSYSGNTTTLTISGVQAEDEADYYCGTADTGKYVFGGGTKLTVLG
notes: IgG1 kappa; also called G8 H4.32/L4.06
B7: humanized anti-PAD4 antibody derived from A11 (H4.00/L4.29, IgG1 kappa) (antibody, V domains shown)
VH: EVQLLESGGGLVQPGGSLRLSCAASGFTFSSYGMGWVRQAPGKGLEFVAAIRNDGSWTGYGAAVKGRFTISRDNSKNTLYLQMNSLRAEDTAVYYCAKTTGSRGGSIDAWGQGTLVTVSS
VL: SYELTQPPSVSVSPGQTARITCSGGGRYYYGWYQQKPGQAPVTVIYANDKRPSGIPERFSGSNSGSTTTLTISGVQAEDEADYYCGSAETSSYVFGGGTKLTVLG
notes: also called humanized A11
B8: humanized anti-PAD4 antibody derived from G9 (H4.00/L4.29, IgG1 kappa) (antibody, V domains shown)
VH: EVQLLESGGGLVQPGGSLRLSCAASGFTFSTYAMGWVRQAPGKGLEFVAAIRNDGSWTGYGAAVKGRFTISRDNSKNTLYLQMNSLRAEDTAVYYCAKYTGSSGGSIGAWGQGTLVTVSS
VL: SYELTQPPSVSVSPGQTARITCSGGGRYYYGWYQQKPGQAPVTVIYANDKRPSGIPERFSGSNSGSTTTLTISGVQAEDEADYYCGSAETSSYVFGGGTKLTVLG
notes: also called humanized G9

From patent US20180044434A1 (PUBLIC UNIVERSITY CORPORATION YOKOHAMA CITY UNIVERSITY, published 2018) come the findings set out here.

The target of one test is T1, full-length recombinant human PAD4 (human, UniProt Q9UM07 1-663).
T1 construct: Full-length recombinant; also called peptidylarginine deiminase 4
T1 sequence (Q9UM07 whole entry): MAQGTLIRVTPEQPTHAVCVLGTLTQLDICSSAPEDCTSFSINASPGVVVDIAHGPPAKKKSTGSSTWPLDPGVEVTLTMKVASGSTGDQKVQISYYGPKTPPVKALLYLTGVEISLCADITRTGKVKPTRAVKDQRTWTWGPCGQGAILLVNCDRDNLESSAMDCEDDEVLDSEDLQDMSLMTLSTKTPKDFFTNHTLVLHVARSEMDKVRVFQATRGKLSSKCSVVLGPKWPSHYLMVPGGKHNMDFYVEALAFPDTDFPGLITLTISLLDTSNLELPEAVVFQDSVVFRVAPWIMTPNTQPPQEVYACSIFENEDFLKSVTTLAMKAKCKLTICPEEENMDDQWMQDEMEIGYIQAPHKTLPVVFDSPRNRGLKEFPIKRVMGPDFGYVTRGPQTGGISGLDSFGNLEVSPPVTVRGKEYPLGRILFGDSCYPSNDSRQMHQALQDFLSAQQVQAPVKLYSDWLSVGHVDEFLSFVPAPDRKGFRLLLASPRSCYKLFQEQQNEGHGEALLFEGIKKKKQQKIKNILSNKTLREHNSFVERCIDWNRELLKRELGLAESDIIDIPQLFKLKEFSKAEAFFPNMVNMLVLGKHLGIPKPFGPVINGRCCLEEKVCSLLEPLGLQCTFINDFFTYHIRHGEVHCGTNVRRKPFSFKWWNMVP
As to the kind of experiment: SPR (Biacore T200), antibody captured, human PAD4 analyte. The text has this: The humanized anti-PAD4 antibodies derived from G8 and H7 were subjected to Biacore (GE Healthcare, Biacore T200) assay to evaluate their affinity. At that time, the combination of the frameworks was such that the H-chain framework was H4.00 and the L-chain framework was L4.29. The class of each antibody used was IgG1κ. Full-length recombinant human PAD4 was used as an antigen. A Human Antibody Capture kit (GE Healthcare, BR-1008-39) was used for the affinity assay. Specifically, in accordance with the standard protocol provided by the manufacture, NHS/EDC was used and an amine coupling method, in which a free carboxyl group is fixed on a surface of a CM5 chip, was used to immobilize a rabbit anti-human polyclonal antibody on the surface of a CM5 chip. Next, the humanized anti-PAD4 antibodies were each captured by the rabbit anti-human polyclonal antibody. Human PAD4 at each concentration was subjected to Biacore T200 measurement to create a kinetic sensorgram.
Background: SPR reads the build-up and loss of mass on a sensor chip optically.
In the case of B1, the Kd was determined as 8.28 nM, the koff was 0.000507 s⁻¹ and the on-rate (kon) turned out to be 61300 M⁻¹ s⁻¹.

The target in another test is T1, full-length recombinant human PAD4. The experiment in a line: ELISA, immobilized human PAD4. (ELISA stands for enzyme-linked immunosorbent assay.)
As to B2, the “O.D. 490/630 at 0.0078125 µg/mL” value was 1.15, the “O.D. 490/630 at 0.015625 µg/mL” value came to 1.56, the “O.D. 490/630 at 0.03125 µg/mL” value stood at 1.85 and the “O.D. 490/630 at 0.0625 µg/mL” value is 1.91. Also, the “O.D. 490/630 at 0.125 µg/mL” value amounted to 1.86, the “O.D. 490/630 at 0.25 µg/mL” value stood at 1.86, the “O.D. 490/630 at 0.5 µg/mL” value turned out to be 1.81 and the “O.D. 490/630 at 1 µg/mL” value stood at 1.84.
As to B3, the “O.D. 490/630 at 0.0078125 µg/mL” value was 1.2, the “O.D. 490/630 at 0.015625 µg/mL” value worked out at 1.56, the “O.D. 490/630 at 0.03125 µg/mL” value is 1.83 and the “O.D. 490/630 at 0.0625 µg/mL” value came out at 1.88. Also, the “O.D. 490/630 at 0.125 µg/mL” value came to 1.89, the “O.D. 490/630 at 0.25 µg/mL” value worked out at 1.83, the “O.D. 490/630 at 0.5 µg/mL” value is 1.83 and the “O.D. 490/630 at 1 µg/mL” value came out at 1.82.
B4: the “O.D. 490/630 at 0.0078125 µg/mL” value stood at 0.364, the “O.D. 490/630 at 0.015625 µg/mL” value was 0.649, the “O.D. 490/630 at 0.03125 µg/mL” value is 1.05 and the “O.D. 490/630 at 0.0625 µg/mL” value worked out at 1.52. Also, the “O.D. 490/630 at 0.125 µg/mL” value was 1.76, the “O.D. 490/630 at 0.25 µg/mL” value worked out at 1.84, the “O.D. 490/630 at 0.5 µg/mL” value was determined as 1.91 and the “O.D. 490/630 at 1 µg/mL” value came to 1.87.
As to B5, the “O.D. 490/630 at 0.0078125 µg/mL” value amounted to 1.26, the “O.D. 490/630 at 0.015625 µg/mL” value stood at 1.69, the “O.D. 490/630 at 0.03125 µg/mL” value turned out to be 1.88 and the “O.D. 490/630 at 0.0625 µg/mL” value is 1.9. Moreover, the “O.D. 490/630 at 0.125 µg/mL” value stood at 1.89, the “O.D. 490/630 at 0.25 µg/mL” value is 1.85, the “O.D. 490/630 at 0.5 µg/mL” value came to 1.84 and the “O.D. 490/630 at 1 µg/mL” value worked out at 1.84.
Take B6: the “O.D. 490/630 at 0.0078125 µg/mL” value was 1.21, the “O.D. 490/630 at 0.015625 µg/mL” value was found to be 1.6, the “O.D. 490/630 at 0.03125 µg/mL” value was 1.82 and the “O.D. 490/630 at 0.0625 µg/mL” value came out at 1.91. In addition, the “O.D. 490/630 at 0.125 µg/mL” value came out at 1.86, the “O.D. 490/630 at 0.25 µg/mL” value worked out at 1.85, the “O.D. 490/630 at 0.5 µg/mL” value was determined as 1.81 and the “O.D. 490/630 at 1 µg/mL” value is 1.79.

The target is the same in the next test. As to the kind of experiment: ELISA, immobilized human PAD4. This is another data set of the same source.
Regarding B1, the concentration for a half-maximal effect (EC50 (read off the curve)) was about 3 ng/mL, the “O.D. 490/630 at 0 µg/mL (blank)” value came to 0.083, the “O.D. 490/630 at 0.000064 µg/mL” value worked out at 0.13 and the “O.D. 490/630 at 0.00032 µg/mL” value worked out at 0.269. Moreover, the “O.D. 490/630 at 0.0016 µg/mL” value came out at 0.766, the “O.D. 490/630 at 0.008 µg/mL” value stood at 1.72, the “O.D. 490/630 at 0.04 µg/mL” value was found to be 2.1 and the “O.D. 490/630 at 0.2 µg/mL” value was determined as 2.07. Further, the “O.D. 490/630 at 1 µg/mL” value stood at 2.08.
As to B7, the “EC50 (read off the curve)” value was about 3 ng/mL, the “O.D. 490/630 at 0 µg/mL (blank)” value amounted to 0.064, the “O.D. 490/630 at 0.000064 µg/mL” value came out at 0.122 and the “O.D. 490/630 at 0.00032 µg/mL” value amounted to 0.245. In addition, the “O.D. 490/630 at 0.0016 µg/mL” value was 0.733, the “O.D. 490/630 at 0.008 µg/mL” value amounted to 1.7, the “O.D. 490/630 at 0.04 µg/mL” value is 2.08 and the “O.D. 490/630 at 0.2 µg/mL” value came to 2.08. Also, the “O.D. 490/630 at 1 µg/mL” value stood at 2.08.
Take B8: the “EC50 (read off the curve)” value is about 3 ng/mL, the “O.D. 490/630 at 0 µg/mL (blank)” value stood at 0.069, the “O.D. 490/630 at 0.000064 µg/mL” value was 0.116 and the “O.D. 490/630 at 0.00032 µg/mL” value came out at 0.252. The “O.D. 490/630 at 0.0016 µg/mL” value amounted to 0.785, the “O.D. 490/630 at 0.008 µg/mL” value was found to be 1.66, the “O.D. 490/630 at 0.04 µg/mL” value stood at 2.09 and the “O.D. 490/630 at 0.2 µg/mL” value came to 2.03. The “O.D. 490/630 at 1 µg/mL” value stood at 2.06.

As usually defined, the Kd is the concentration at which binding is half-saturated. Broadly, the koff is the first-order rate constant of dissociation. As usually defined, the kon is the second-order rate constant of association. One may read the EC50 (read off the curve) as the concentration at which the effect is half-maximal.
